According to patent publication US20080300206:

Target: recombinant wild-type human alpha-synuclein

Row | Protein | Fold Change in Percent Synuclein Phosphorylation, HEK-293 overexpression | Proportion of total synuclein that is phoshorylated at ser-129, HEK-293 overexpression, ELISA | in vitro biochemical assay, phosphorylation of synuclein | in vitro kinase reaction, phosphorylation of alpha-synuclein
1 | PLK4 (protein) MATCIGEKIEDFKVGNLLGKGSFAGVYRAESIHTGLEVAIKMIDKKAMYKAGMVQRVQNEVKIHCQLKHPSILELYNYFEDSNYVYLVLEMCHNGEMNRYLKNRVKPFSENEARHFMHQIITGMLYLHSHGILHRDLTLSNLLLTRNMNIKIADFGLATQLKMPHEKHYTLCGTPNYISPEIATRSAHGLESDVWSLGCMFYTLLIGRPPFDTDTVKNTLNKVVLADYEMPSFLSIEAKDLIHQLLRRNPADRLSLSSVLDHPFMSRNSSTKSKDLGTVEDSIDSGHATISTAITASSSTSISGSLFDKRRLLIGQPLPNKMTVFPKNKSSTDFSSSGDGNSFYTQWGNQETSNSGRGRVIQDAEERPHSRYLRRAYSSDRSGTSNSQSQAKTYTMERCHSAEMLSVSKRSGGGENEERYSPTDNNANIFNFFKEKTSSSSGSFERPDNNQALSNHLCPGKTPFPFADPTPQTETVQQWFGNLQINAHLRKTTEYDSISPNRDFQGHPDLQKDTSKNAWTDTKVKKNSDASDNAHSVKQQNTMKYMTALHSKPEIIQQECVFGSDPLSEQSKTRGMEPPWGYQNRTLRSITSPLVAHRLKPIRQKTKKAVVSILDSEEVCVELVKEYASQEYVKEVLQISSDGNTITIYYPNGGRGFPLADRPPSPTDNISRYSFDNLPEKYWRKYQYASRFVQLVRSKSPKITYFTRYAKCILMENSPGADFEVWFYDGVKIHKTEDFIQVIEKTGKSYTLKSESEVNSLKEEIKMYMDHANEGHRICLALESIISEEERKTRSAPFFPIIIGRKPGSTSSPKALSPPPSVDSNYPTRERASFNRMVMHSAASPTQAPILNPSMVTNEGLGLTTTASGTDISSNSLKDCLPKSAQLLKSVFVKNVGWATQLTSGAVWVQFNDGSQLVVQAGVSSISYTSPNGQTTRYGENEKLPDYIKQKLQCLSSILLMFSNPTPNFH | 1 fold | 1.9% | PLK4 exhibiting no ability to phosphorylate synuclein | –
2 | MET (protein) KKRKQIKDLGSELVRYDARVHTPHLDRLVSARSVSPTTEMVSNESVDYRATFPEDQFPNSSQNGSCRQVQYPLTDMSPILTSGDSDISSPLLQNTVHIDLSALNPELVQAVQHVVIGPSSLIVHFNEVIGRGHFGCVYHGTLLDNDGKKIHCAVKSLNRITDIGEVSQFLTEGIIMKDFSHPNVLSLLGICLRSEGSPLVVLPYMKHGDLRNFIRNETHNPTVKDLIGFGLQVAKGMKYLASKKFVHRDLAARNCMLDEKFTVKVADFGLARDMYDKEYYSVHNKTGAKLPVKWMALESLQTQKFTTKSDVWSFGVLLWELMTRGAPPYPDVNTFDITVYLLQGRRLLQPEYCPDPLYEVMLKCWHPKAEMRPSFSELVSRISAIFSTFIGEHYVHVNATYVNVKCVAPYPSLLSSEDNADDEVDTRPASFWETS | – | – | – | shown to be incapable of directly phosphorylating alpha-synuclein
3 | CDC7 cell division cycle 7-like 1 (CDC7L1) (protein) MEASLGIQMDEPMAFSPQRDRFQAEGSLKKNEQNFKLAGVKKDIEKLYEAVPQLSNVFKIEDKIGEGTFSSVYLATAQLQVGPEEKIALKHLIPTSHPIRIAAELQCLTVAGGQDNVMGVKYCFRKNDHVVIAMPYLEHESFLDILNSLSFQEVREYMLNLFKALKRIHQFGIVHRDVKPSNFLYNRRLKKYALVDFGLAQGTHDTKIELLKFVQSEAQQERCSQNKSHIITGNKIPLSGPVPKELDQQSTTKASVKRPYTNAQIQIKQGKDGKEGSVGLSVQRSVFGERNFNIHSSISHESPAVKLMKQSKTVDVLSRKLATKKKAISTKVMNSAVMRKTASSCPASLTCDCYATDKVCSICLSRRQQVAPRAGTPGFRAPEVLTKCPNQTTAIDMWSAGVIFLSLLSGRYPFYKASDDLTALAQIMTIRGSRETIQAAKTFGKSILCSKEVPAQDLRKLCERLRGMDSSTPKLTSDIQGHASHQPAISEKTDHKASCLVQTPPGQYSGNSFKKGDSNSCEHCFDEYNTNLEGWNEVPDEAYDLLDKLLDLNPASRITAEEALLHPFFKDMSL | – | – | – | shown to be incapable of directly phosphorylating alpha-synuclein
4 | IKBKB (protein) MSWSPSLTTQTCGAWEMKERLGTGGFGNVIRWHNQETGEQIAIKQCRQELSPRNRERWCLEIQIMRRLTHPNVVAARDVPEGMQNLAPNDLPLLAMEYCQGGDLRKYLNQFENCCGLREGAILTLLSDIASALRYLHENRIIHRDLKPENIVLQQGEQRLIHKIIDLGYAKELDQGSLCTSFVGTLQYLAPELLEQQKYTVTVDYWSFGTLAFECITGFRPFLPNWQPVQWHSKVRQKSEVDIVVSEDLNGTVKFSSSLPYPNNLNSVLAERLEKWLQLMLMWHPRQRGTDPTYGPNGCFKALDDILNLKLVHILNMVTGTIHTYPVTEDESLQSLKARIQQDTGIPEEDQELLQEAGLALIPDKPATQCISDGKLNEGHTLDMDLVFLFDNSKITYETQISPRPQPESVSCILQEPKRNLAFFQLRKVWGQVWHSIQTLKEDCNRLQQGQRAAMMNLLRNNSCLSKMKNSMASMSQQLKAKLDFFKTSIQIDLEKYSEQTEFGITSDKLLLAWREMEQAVELCGRENEVKLLVERMMALQTDIVDLQRSPMGRKQGGTLDDLEEQARELYRRLREKPRDQRTEGDSQEMVRLLLQAIQSFEKKVRVIYTQLSKTVVCKQKALELLPKVEEVVSLMNEDEKTVVRLQEKRQKELWNLLKIACSKVRGPVSGSPDSMNASRLSQPGQLMSQPSTASNSLPEPAKKSEELVAEAHNLCTLLENAIQDTVREQDQSFTALDWSWLQTEEEEHSCLEQAS | – | – | – | shown to be incapable of directly phosphorylating alpha-synuclein
